According to WO2011004847A1 (dated 2011):
Positions count from the first letter of the chain named. Several values for one entry are separate records, joined by “and”; a condition that tells them apart may be missing. Identical values can stand only once.

T1: human α9 integrin molecule expressed on SW480 cells (human, UniProt Q13797 30-1035)
T1 sequence (looked up): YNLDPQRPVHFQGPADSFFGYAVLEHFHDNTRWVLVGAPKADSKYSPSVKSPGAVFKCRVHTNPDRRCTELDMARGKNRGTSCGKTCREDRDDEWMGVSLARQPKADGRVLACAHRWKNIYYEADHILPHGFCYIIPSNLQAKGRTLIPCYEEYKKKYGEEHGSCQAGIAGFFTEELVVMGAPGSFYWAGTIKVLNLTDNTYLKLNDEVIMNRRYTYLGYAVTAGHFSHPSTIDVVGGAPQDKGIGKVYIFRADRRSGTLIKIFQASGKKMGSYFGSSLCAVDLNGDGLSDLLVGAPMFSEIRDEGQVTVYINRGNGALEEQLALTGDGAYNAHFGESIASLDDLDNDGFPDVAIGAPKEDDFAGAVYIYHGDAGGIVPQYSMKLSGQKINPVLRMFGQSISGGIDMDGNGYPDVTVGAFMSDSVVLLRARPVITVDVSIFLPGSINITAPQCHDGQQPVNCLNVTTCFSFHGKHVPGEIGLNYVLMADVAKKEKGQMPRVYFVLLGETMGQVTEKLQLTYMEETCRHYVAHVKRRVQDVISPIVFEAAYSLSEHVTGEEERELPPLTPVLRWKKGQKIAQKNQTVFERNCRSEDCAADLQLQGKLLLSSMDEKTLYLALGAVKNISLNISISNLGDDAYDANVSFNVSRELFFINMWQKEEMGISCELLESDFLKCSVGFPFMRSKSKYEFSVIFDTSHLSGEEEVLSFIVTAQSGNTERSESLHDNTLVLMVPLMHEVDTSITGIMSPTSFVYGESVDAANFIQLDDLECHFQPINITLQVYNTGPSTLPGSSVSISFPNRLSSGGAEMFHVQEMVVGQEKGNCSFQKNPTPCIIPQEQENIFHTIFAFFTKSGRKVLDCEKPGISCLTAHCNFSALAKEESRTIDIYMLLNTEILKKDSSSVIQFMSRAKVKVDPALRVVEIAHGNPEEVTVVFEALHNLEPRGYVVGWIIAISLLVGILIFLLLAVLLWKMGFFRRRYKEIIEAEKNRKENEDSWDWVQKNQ

B1: mouse anti-human α9 integrin antibody Y9A2 (antibody, V domains shown)
VH: QVQLQQSGAELANPGASVKMSCKASGYTLTTYWMHWVKQRPGQGLEWIGYINPSSGYTEYNQKFKDKATLTADKSSSTAYMQLTSLTSEDSAVYYCAIYGDYGDFYFDYWGQGTTLTVSS
VL: SIVMTQTPKFLLVSAGDRVTMTCKASQSVNTDVAWFQQKPGQSPKLLIYFASNHYTGVPDRFTGSGYGTDFTFTISTVQAEDLAIYFCRQDYSSPFTFGGGTKLEIKR
B2: RY9A2v12 (W33FM34L) 012 antibody (antibody, human IgG1, kappa, V domains shown)
VH: QVQLVQSGAEVKKPGSSVKVSCKASGYTLTTYFLHWVRQAPGQGLEWMGYINPSSGYTEYNQKFQGRVTITADKSTSTAYMELSSLRSEDTAVYYCAIYGDYGDFYFDYWGQGTTVTVSS
VL: DIQMTQSPSSLSASVGDRVTITCRASQSVNTDVAWYQQKPGKAPKLLIYFASNHYTGVPSRFSGSGSGTDFTFTISSLQPEDIATYYCRQDYSSPFTFGGGTKVEIKR
B3: RY9A2v12 (W33YM34L) 012 antibody (antibody, human IgG1, kappa, V domains shown)
VH: B2 VH with F33Y
VL: B2 VL

Molecular target: T1, human α9 integrin molecule expressed on …
Test: cell-based or functional assay

Binder | IC50 (μg/mL), cell adhesion inhibition test | concentration giving significant inhibition of migration of SW480/hα9 cells toward nOPN-RAA [µg/mL] | cell adhesion inhibitory activity relative to mouse Y9A2 antibody [fold]
B1 | 0.07 µg/mL and 0.039 µg/mL | 50 | –
B2 | – | 5 | ~4
B3 | – | 5 | ~4
